Measured values: the supplement of paper PMC10567573
± gives the standard deviation.

Test: protein stability index of a GFP-peptide fusion (GPS, HEK-293T) (PSI 1-6); higher = more stable
[1] = treatment: DMSO, c terminus: a fixed tail appended
[2] = treatment: MLN4924 1 uM, 8 h, c terminus: a fixed tail appended
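Note: 24-mer peptide tiles fused after GFP, lentivirally expressed, FACS-sorted into six equal bins by GFP/DsRed ratio, decoded by Illumina sequencing, PSI is the read-weighted mean bin number.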

Sequence	protein stability index [1]	protein stability index [2]	protein stability index (treatment: DMSO, c terminus: native)	protein stability index (treatment: MLN4924 1 uM, 8 h, c terminus: native)
LLPVQVVTEHPLELIRVEVEILDL [PCDHGC5]	3.02 ± 0.66	3.05 ± 0.85		
LLQNEFVGFMWRQRGRVISLWERL [MCOLN1]	2.7 ± 0.19	2.68 ± 0.26		
LLRHQRIHTGERPYKCPECGKSFS [ZNF263]	2.71 ± 0.47	3.58 ± 0.47		
LLSILPSLLGLLSFPRNNISYLVL [JAGN1]	3.155 ± 0.027	3.1 ± 0.43		
LLTFQQITTVSKAKGASLFTCDLQ [VPS39]	2.14 ± 0.2	2.07 ± 0.27		
LMADKVLRWERAWFPPAIMGVVSL [ARL6IP1]	3.13 ± 0.66	2.45 ± 0.86		
LMSAQTITSETTSTTTTTHITKTV [EPB41L3]	4.5 ± 0.26	4.68 ± 0.14		
LNDAKRELRFLLVYLHGDDHQDSD [FAF2]	2.31 ± 0.36	2.23 ± 0.25		
LNHGASVNNTTLTNSTPLRAACFD [FEM1C]	3.98 ± 0.31	3.94 ± 0.14		
LNKKLKSYSLSRKKIVHYTCFDQR [CDC14A]	2.39 ± 0.26	2.35 ± 0.3		
LNMRSTYAKLAAVAVFFIMLIVYV [SEC22B]	3.14 ± 0.36	3.19 ± 0.23		
LNQIVTEPDANFPQFLHEGLSKPV [FAM104B]	3.86 ± 0.039	3.7 ± 0.42		
LPECLEYEEEFDYETESETESEIE [GNAS]	5.3 ± 0.15	5.26 ± 0.23		
LPPEKGREVAKELGIPYYETSVVA [RHOBTB2]	3.55 ± 0.24	3.55 ± 0.18		
LPPSPPPSPASEQTVTVEEAAGGE [MAP2]	5.4 ± 0.27	5.51 ± 0.16		
LPPVAVRSLQDLARIAIRGTIKKI [PCMTD2]	3.2 ± 0.34	3.12 ± 0.22		
LPQEHSQIYHCTKRKEEECSTTDH [TBX5]	5.39 ± 0.21	5.49 ± 0.11		
LPWQGLKADTLKERYQKIGDTKRA [CSNK1G3]	3.77 ± 0.11	3.76 ± 0.41		
LPYPKDVYSVSVDQKERCIIVRTT [DPCD]	2.21 ± 0.22	2.18 ± 0.22		
LQIELGKCKAEHDQLLLNYAKKES [LMNB1]	3.29 ± 0.24	3.33 ± 0.33		
LQSYQAEIIELRRTVNALEIELQA [KRT33B]	2.59 ± 0.54	2.27 ± 0.3		
LQVAGLSEEQLQEPITGWRKTVCH [LPCAT4]	3.29 ± 0.25	3.47 ± 0.12		

Sequence	protein stability index [1]	protein stability index [2]	protein stability index (treatment: DMSO, c terminus: native)	protein stability index (treatment: MLN4924 1 uM, 8 h, c terminus: native)
LRLLVESDINSIRRILDELTLCKS [KRT34]	2.22 ± 0.5	2.16 ± 0.12		
LRNITNSQAPDGRRKSEAGSGAAS [CDC25B]	4.89 ± 0.24	5.1 ± 0.16		
LRPPHTSRGTSQTPNASSPGNPTA [LPCAT4]	4.76 ± 0.17	4.85 ± 0.21		
LRQQQHKQNKQVLGYCLLLMLAGM [DNAJC4]	2.28 ± 0.48	2.41 ± 0.18		
LSALLQFGVTYLEDYSAEYIIQQG [BCL2L13]	2.9 ± 0.42	2.43 ± 0.55		
LSANLHGGAVVANYPYDKSFEHRV [CPN1]	3.46 ± 0.27	3.5 ± 0.28		
LSDREVVNLFLHFTVNPKPRVEYI [BTBD1]	2.98 ± 0.73	2.5 ± 0.26		
LSEDYNKMTPVKNYQAHQSRVTMI [WDFY2]	2.71 ± 0.12	2.83 ± 0.13		
LSEKEINAREESLVEELSPASEKK [BCL2L13]	5.42 ± 0.46	5.58 ± 0.15		
LSFYDAERHCHLYTFHARFGEVRP [TRIM35]	2.34 ± 0.54	2.3 ± 0.55		
LSLQDQVDTLTFQSQSLRDRARRF [MTUS2]	3.91 ± 0.26	3.84 ± 0.18		
LSRCEFQRAKCKDPQLEIAYRGNC [SMOC2]	3.23 ± 0.42	3.14 ± 0.23		
LSRHSKGLQILGHTLRASMRELGL [KCNA4]	2.25 ± 0.21	2.25 ± 0.024		
LSSAPSSRAEPIRTTVFQYPVGWP [ZMAT5]	2.86 ± 0.22	2.94 ± 0.19		
LTADSRKSHLIFPQPNYADTLISQ [PCDHGA10]	3.17 ± 0.17	3.11 ± 0.27		
LTASTMEILLDFVYTETVHVTVEN [KLHL12]	2.9 ± 0.79	3.29 ± 1.4		
LTICYPEYAGSNTYEEAAAYIQCQ [GNAI1]	2.46 ± 0.25	2.43 ± 0.46		
LTKASLKPRGCSKPPWRPPGGKL [SPACA9]			2.55 ± 0.65	3.35 ± 1
LTPGFSDNAIMLFSPDFTLRNTLK [FAN1]	2.4 ± 0.3	2.65 ± 0.54		
LTSMRRLSSIKRDTNSIAKAIKAR [STX11]	3.4 ± 0.26	3.64 ± 0.34		
LVAEVPKEHWTPEGHSIVGFAMYY [SAT1]	2.81 ± 0.58	2.57 ± 0.39		
LVENAKNFPQCVLEISDQEVLEWY [EFHC1]	2.96 ± 0.23	2.87 ± 0.23		
